In the assay the target is unmodified nucleosome (UniProt P68431).

Turning to “ALC1 (full-length, 6xHis-1xFLAG-ALC1) (from UniProt Q86WJ1 1-897) (enzyme)”, the ALC1 nucleosome remodeling rate constant (REA assay) is below 0.0003 min⁻¹.

Values taken from PMC8683085, “Serine ADP-ribosylation marks nucleosomes for ALC1-dependent chromatin remodeling” (eLife, 2021).
